Source: US20230080534A1, “SEMG2 ANTIBODY AND USE THEREOF” (SHANGHAI BIOTROY BIOTECHNIQUE CO., LTD., priority 2020, published 2023)

T1: binding between SEMG2 and CD27 (Homo sapiens, UniProt Q02383)
T1 sequence (Q02383 24-582): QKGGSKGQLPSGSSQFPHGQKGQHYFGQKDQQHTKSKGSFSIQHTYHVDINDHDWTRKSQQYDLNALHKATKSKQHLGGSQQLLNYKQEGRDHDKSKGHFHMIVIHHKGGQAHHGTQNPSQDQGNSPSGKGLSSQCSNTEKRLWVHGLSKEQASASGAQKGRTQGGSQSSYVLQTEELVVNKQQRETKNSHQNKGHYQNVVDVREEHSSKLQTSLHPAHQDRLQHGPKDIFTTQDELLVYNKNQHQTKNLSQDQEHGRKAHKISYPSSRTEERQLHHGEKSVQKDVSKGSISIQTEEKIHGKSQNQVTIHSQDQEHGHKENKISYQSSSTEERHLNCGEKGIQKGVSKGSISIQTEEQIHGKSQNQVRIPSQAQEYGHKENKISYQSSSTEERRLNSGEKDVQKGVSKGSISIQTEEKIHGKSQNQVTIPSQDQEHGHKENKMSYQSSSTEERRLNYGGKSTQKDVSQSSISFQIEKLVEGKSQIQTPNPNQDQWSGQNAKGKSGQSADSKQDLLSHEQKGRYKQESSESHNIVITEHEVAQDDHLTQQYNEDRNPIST


Columns and labels:
[1] = target: T1, binding between SEMG2 and CD27; test: Antibody blocking ELISA of SEMG2 binding to CD27-Fc; details: antibody 10 μg/mL
Description: Because SEMG2 (497-509) sequence fragment is the key epitope of SEMG2 binding to CD27, and has a relatively short sequence, so SEMG2 (497-509) was used as an immunogen to prepare antibodies, which is theoretically easier to obtain functional antibody molecules with the function of blocking the binding between SEMG2 and CD27 than using full-length SEMG2 to prepare antibodies. For direct comparison, the differences in effective concentration of producing antibody by the two methods were verified using ELISA in the examples. Antibodies produced with SEMG2 (497-509) as immunogen and antibodies produced with full-length SEMG2 were added into the enzyme-linked immunosorbent assay (ELISA) reaction system at different concentrations (10^-2, 10^-1, 10^0, 10^1, 10^2, 10^3, 10^4 μg/mL), and the ELISA binding values were measured. The specific steps of enzyme-linked immunosorbent assay are as follows: (1) Dissolve SEMG2 protein antigen with 50 mM carbonate coating buffer (pH 9.6) to make the antigen concentration 10 μg/mL, and add into 96-well ELISA plate (purchased from Corning) at 100 μL/well, place at 4° C. overnight. (2) After discarding the coating solution on the next day, wash with PBST for three times, add 150 μL of 1% BSA to each well, and block for 2 hours at 37° C. […] (4) After washing for 5 times with PBST, add 100 of diluted HRP-labeled anti-human Fe secondary antibody, and incubate at 37° C. for 1 hour. (5) After washing with PBST for 5 times, 20 min after developing with chromogenic agent, the A450 absorption value was read using the microplate reader.
The SEMG2 (497-509) sequence was used to synthesize a polypeptide and coupled to a VLP carrier for immunization; HEK293 cells were used to express the full-length SEMG2 protein, and the purity was tested to reach 92%, and the binding activity of SEMG2 protein to CD27 was verified by ELISA. The protein and polypeptide antigens were used to immunize 10 mice respectively, and multiple immunizations were performed to enhance the effect: (1) The first immunization, 50 μg/mice of antigen, multiple subcutaneous injections together with Freund's complete adjuvant, with an interval of 3 weeks; (2) the second immunization; the same dosage and route as above, with incomplete Freund's adjuvant, and with an interval of 3 weeks; (3) the third immunization, the same dosage as above, without adjuvant, intraperitoneal injection with an interval of 3 weeks; (4) the booster immunization, the dose is 50 μg, intraperitoneal injection. 3 days after the last injection, blood was collected to measure its titer and the immune effect, and mice with higher titers were selected for hybridoma fusion screening. After subcloning, the binding of the monoclonal antibodies to the target antigens was detected by ELISA, and the function of different monoclonal antibodies in blocking the binding between SEMG2 and CD27 was measured by ELISA.
First, SEMG2(497-509) epitope-specific antibodies (for example, MM02, MM05) were compared with other epitope-specific antibodies (for example, HPA042767) for their function in blocking binding between SEMG2 and CD27 at different concentration ranges. […] The blocking function of different antibodies (irrelative mouse IgG, MM02, MM05, HPA042767) on binding between SEMG2 and CD27 was analyzed by the ELISA experiment as described in Example 11.
Further, the effects of different antibodies on the binding between SEMG2 and CD27 were compared under the condition of the same antibody concentration. In the ELISA, the same concentration (10 μg/mL) of antibody was used, and the strength of the binding between SEMG2 and CD27 was measured. […]

[2] = target: T2, SEMG2(497-509) fragment (Homo sapiens, UniProt Q02383); test: ELISA binding of antibodies to SEMG2(497-509) epitope
T2 construct: SEMG2(497-509) fragment and SEMG2(563-574) fragment were immobilized on the ELISA plate; made in house; host or cells: chemical synthesis
Protocol: Specifically, SEMG2 full-length protein (1-582), SEMG2(354-403) fragment, SEMG2(442-453) fragment, SEMG2(497-509) fragment and SEMG2(563-574) fragment were immobilized on the ELISA plate, and the same concentration of antibodies (MM02, MM05, MM07, MM08, MM13, MM14, HPA042767 and HPA042835) were added. Anti-mouse or anti-rabbit secondary antibodies were then used to detect the corresponding bound antibodies. MM02, MM05, MM07, MM08, MM13, and MM14 all bound to SEMG2(497509) epitope, HPA042767 bound to SEMG2 (354-403) epitope, and HPA042835 bound to […], while none of the antibodies bound to SEMG2 (442-453) control fragment.
Specifically, the preparation of polypeptide antigens and the screening of human natural antibody library were firstly performed. The SEMG2(497-509) polypeptide was synthesized and coupled to BSA and KLH, respectively, and screened in a fully human phage display antibody library. ELISA was used to select clones that bind to antigenic epitopes for preliminary screening. Different unique sequences were obtained after sequencing single colonies, sorted according to affinity sorting, and full-length antibodies were constructed from antigen-binding fragments (Fab) with relatively high affinity. The binding ability and blocking function tests were performed after purification, that is, the effect of the antibody on binding between SEMG2 and CD27 was determined by the ELISA experiment.

[3] = tested on: A375 human melanoma cells; test: Tumor cell killing by activated PBMC, caspase-3/7 apoptosis; assay type: cell-based; details: A375, SEMG2-positive, co-culture with activated PBMC 10:1
Protocol: (§1) To test the above hypothesis, the effects of different epitope-specific antibodies on tumor cell killing by activated PBMC were compared. Specifically, A375 human melanoma and LOVO human colorectal cancer cells highly expressing SEMG2 were seeded in 96-well plate. Human peripheral blood mononuclear cells (PBMC; #70025, Stem Cell) were activated with 100 ng/mL of CD3 antibody, 100 ng/mL, of CD28 antibody, and 1.0 ng/mL of IL2 (#317303; #302913; #589102, BioLegend), respectively, and co-cultured with the above tumor cells at a ratio of 10:1 in presence of fluorescent caspase-3/7 substrate (#4440, Essen Bioscience). After 1.0 hours, cells were observed under fluorescence microscope.
(§2) To verify the above hypothesis, tumor cells with high SEMG2 expression (A375, LOVO) and SEMG2-negative tumor cells (DLD1, NCM460 and NCI-H1975) were selected. Different antibodies (irrelevant mouse IgG antibodies, MM02 or MM05 antibodies) were added during the PBMC killing experiments for the tumor cells.
(§3) To verify the effect of the human antibodies on the function of activated PBMC on tumor cell killing, A375 and LOVO cells were co-cultured with activated PBMC, and H88-93, H88-96, or H88-67 antibody was added at the same time, and the apoptosis ratio of tumor cells were detected.

[4] = tested on: LOVO human colorectal cancer cells; test: as above; assay type: cell-based; details: SEMG2-positive, co-culture with activated PBMC 10:1
Protocol: as §1, §2, §3

| Molecule | effect on the binding between SEMG2 and CD27 [1] | binding to SEMG2(497-509) epitope [2] | apoptosis tumor cell ratio / killing by activated PBMC [3] | apoptosis tumor cell ratio / killing by activated PBMC [4] |
| --- | --- | --- | --- | --- |
| MM07: mouse monoclonal antibody against SEMG2(497-509), mIgG2b kappa, VH SEQ ID NO:37, VL SEQ ID NO:44 (antibody, V domains shown, UNSURE (1)..(134) VH; UNSURE (1)..(129) VL) VH: MDWLWTLLFLMAAAQSIQAQIQLVQSGPELKKPGETVRISCKASGYTLTTAGMQWVQKIPGKGLKWIGWINTHSGVAEFAEDFKGRFAFSLETSANTAYLQIRNLKNEDTATYFCARLGLLGYWGQGTTLTVSS VL: MVSSAQFLVFLLFWIPASRGDILLTQSPAILSVSPGERVSFSCRASQSIGTTIHWYQQRTNGSPRLLIKYASESISGIPSRFSGSGSGTDFTLSINSVESEDIADYYCQQSNSWPWTFGGGTKLEIKRA | significantly reduced the binding | bound | significantly increased | significantly increased |
| MM14: mouse monoclonal antibody against SEMG2(497-509), mIgG2b kappa, VH SEQ ID NO:40, VL SEQ ID NO:47 (antibody, V domains shown, UNSURE (1)..(122) VH; UNSURE (1)..(108) VL) VH: QVQLKESGPGLVAPSQSLSITCTVSGFSLTSYAVSWVRQPPGKGLEWLGIIWGDGSTNYHSALISRLSISKDNSKSQVFLKLNSLQTDDTATYYCAKQERFSDGYYDGFAYWGQGTLVTVSA VL: QIVLTQSPAIMSASPGEKVTITCSASSSVSYMHWFQQKPGTSPKLWIYSTSNLASGVPARFSGSGSGTSYSLTISRMEAEDAATYYCQQRSSYPFTFGSGTKLEIKRA | significantly reduced the binding | bound | significantly increased | significantly increased |
| MM08: mouse monoclonal antibody against SEMG2(497-509), mIgG1 kappa, VH SEQ ID NO:38, VL SEQ ID NO:45 (antibody, V domains shown, UNSURE (1)..(120) VH; UNSURE (1)..(115) VL) VH: QVQLQQPGAELVRPGASVKLSCKSSDYTFTRYWMNWVKQRPGQGLEWIGMIDPSDSETHHNQMFKDKATLTVDKSSSTAYMQLSSLTSEDSAVYFCARYLGGKEGSFDYWGQGTTLTVSS VL: DIVLTQSPSSLAVSAGERVTMSCKSSQSLFNSRTRKNYLAWYQQKPGQSPKLLLYWASTRESGVPDRFTGSGSGTDFTLTISSVKTEDLAVYYCKQSYELPWTFGGGTKLEMKRA | significantly reduced the binding | bound | significantly increased | significantly increased |
| H88-96: fully human antibody from phage library against SEMG2(497-509), VH SEQ ID NO:54, VL SEQ ID NO:57 (antibody, V domains shown, UNSURE (1)..(124) VH; UNSURE (1)..(107) VL) VH: QVQLLESGGGLVQPGGSLRLSCSASGFTFSSYAMHWVRQAPGKGLEYVSAISSNGGSTYYADSVKGRFTISRDNSKNTLYLQMSSLRAEDTAVYYCVIEGGSTTGTTSGAFDIWGQGTMVTVSS VL: DIQMIQSPPSVSASVGDTVTIACRANQGIDSWLAWYQQKPGRAPKLLIYSASRLQSGVPSRFSGGGSGTDFALTISNLQPEDFATYYCQQALSLPITFGQGTRLEIK | inhibited the binding | bind | significantly promote the killing | significantly promote the killing |
